Assay results as given in patent US12702694B2, “Methods for identification, assessment, prevention, and treatment of metabolic disorders using SLIT2” (Dana-Farber Cancer Institute, Inc., priority 2015, dated 2026).

Columns and labels:
primary brown fat cells = experiment: Thermogenic gene expression in primary brown fat cells with adenoviral overexpression; type: cell-based, Mus musculus; settings: Slit2-C vs LacZ virus, day 7; FIG. 6B
Experimental: Inguinal and brown stromal-vascular fractions were obtained from 6 weeks old male or newborn mice (postnatal days 5-10) for white and brown fat cultures, respectively. Inguinal fat tissue was dissected and washed with PBS, minced and digested for 45 min at 37° C. in PBS containing 10 mM CaCl2), 2.4 U/ml dispase II (Roche) and 10 mg/ml collagenase D (Roche). Brown fat tissue was dissected, washed with PBS, minced and digested for 45 min at 37° C. in PBS containing 1.3 mM CaCl2, 123 mM NaCl, 5 mM KCl, 5.0 mM glucose, 100 mM HEPES, 4% BSA and 1.5 mg/ml collagenase B (Roche). Digested tissue was filtered through a 100-μm cell strainer and centrifuged at 600 g for 10 min. […] For adenoviral overexpression of Slit2-FL, Slit2-N, Slit2-C, LacZ or Cre, virus was added at day 2 of differentiation at a titer of 10^8 particles/well and cells were analyzed at day 6-7. […]
(§1) RNA was extracted from cultured cells or frozen tissue samples using TRIzol®, purified with QIAGEN RNeasy® minicolumns. Normalized RNA was reversed transcribed using a high-capacity cDNA reverse transcription lot (Applied Biosystems) and cDNA was analyzed by qRT-CPR. Relative mRNA levels were calculated using the comparative CT method and normalized to cyclophilin miRNA. […]

[1] = system: diet-induced obese (DIO) mice; experiment: Adipose gene and UCP1 protein expression after adenovirus injection in diet-induced obese (DIO) mice; type: in vivo, Mus musculus
Experimental: All animal experiments were approved by the Institutional Animal Care and Use Committee of the Beth Israel Deaconess Medical Center. Mice (Mus musculus) were obtained from Jackson Laboratories, maintained in 12 hour light-lark cycles (6 a.m.-6 p.m.) at 22° C., and fed a standard irradiated rodent chow diet or a high-fat diet (60% fat) for 12-20 weeks. AAV-8 viruses (Penn Vector Core) and adenoviruses (Vector Biolabs or constructed in-house) were injected at a titer of 10^11 or 10^10 per mouse, respectively. All experiments were done with male mice. The aP2-PRDM16 transgenic mice have been previously described in Seale et al. (2011) J. Clin. Invest. 121:96-105. PRDM16-floxed mice were crossed with adiponectin-Cre and were maintained on a pure C57BL/6 background (Cohen et al. (2014) Cell 156:304-316). The Slit2-floxed mice have been described previously in Rama et al. (2015) Nat. Med. 21:483-491. Lean C57BL/6 mice were obtained from Jackson Laboratories and were […].
as §1, with “[…]. All primers used are listed with their sequences in Table 3 as follows:” for “miRNA.”
For Western blotting, homogenized tissues, whole cell lysates, or concentrated serum free conditioned medium were lysed in RIPA buffer containing protease inhibitor cocktail (Thermo Scientific) and phosphatase inhibitor cocktail (Thermo Scientific), separated by SDS-PAGE and transferred to Immobilon-P® membranes (Millipore). For Western blotting of plasma samples, 1 μl of plasma was prepared containing 2× sample buffer (Invitrogen) with reducing agent, boiled and analyzed using Western blot against V5, FLAG, or the indicated antibody. V5-antibody was from Life Technologies and anti-Flag M2-HRP (A8592) from Sigma Aldrich. Anti-Slit2 antibody used was from Abcam (Abcam ab134166). Phospho-PKA Substrate, phospho-PKC Substrate, phospho-ERK1/2, total ERK, phospho-AKT, total AKT, phospho-AMPK, total AMPK, phospho-ATGL, ATGL, phospho-EGFR and EGFR were from Cell Signaling. Protein array was from R&D Systems (Proteome Profiler Mouse Phospho-RTK Array Kit, ARY014). Silverstain (SilverQuest™ Silver Staining Kit, LC6070) was purchased from Thermo Fisher.

B1: Slit2-C: ~50 kDa C-terminal cleavage fragment of Slit2 beginning at TSP (SEQ ID NO: 22); adenovirally expressed or purified FLAG-tagged protein (protein, listed as Homo sapiens)
chain: TSPCDNFDCQNGAQCIIRINEPICQCLPGYLGEKCEKLVSVNFVNKESYLQIPSAKVRPQTNITLQIATDEDSGILLYKGDKDHIAVELYRGRVRASYDTGSHPASAIYSVETINDGNFHIVELLTLDSSLSLSVDGGSPKVITNLSKQSTLNFDSPLYVGGMPGKNNVASLRQAPGQNGTSFHGCIRNLYINSELQDFRKMPMQTGILPGCEPCHKKVCAHGMCQPSSQSGFTCECEEGWMGPLCDQRTNDPCLGNKCVHGTCLPINAFSYSCKCLEGHGGVLCDEEEDLFNPCQMIKCKHGKCRLSGVGQPYCECNSGFTGDSCDREISCRGERIRDYYQKQQGYAACQTTKKVSRLECRGGCAGGQCCGPLRSKRRKYSFECTDGSSFVDEVEKVVKCGCARCAS
modifications: FLAG tag
notes: adenovirally expressed or purified FLAG-tagged protein
thermogenic gene expression response of primary brown fat cells (primary brown fat cells): responded stronger
Fas in inguinal and brown fat ([1]; 16-week DIO mice, 7 days post-injection, FIGS. 7A-7B): reduction
Hsl and Atgl expression ([1]; 16-week DIO mice, FIGS. 7A-7B): unchanged
Resistin in brown fat ([1]; FIG. 7C): unchanged
brown fat levels of Leptin ([1]; FIG. 7C): marked reduction
induction of Ucp1 protein expression in BAT ([1]; Western blot quantification relative tubulin, DIO mice 7 days post-injection, FIG. 7D): 1.3 fold
